{"source": "patent US20120090043A1", "about": "“TARGETS FOR RETROVIRUS ASSOCIATED DISEASES” (priority 2009, published 2012)", "molecules": {"B1": {"name": "DLX2: human host interactor protein, Gene ID 1746, expressed from transfected ORF vector (protein)", "chain": "MTGVFDSLVADMHSTQIAASSTYHQHQQPPSGGGAGPGGNSSSSSSLHKPQESPTLPVSTATDSSYYTNQQHPAGGGGGGGSPYAHMGSYQYQASGLNNVPYSAKSSYDLGYTAAYTSYAPYGTSSSPANNEPEKEDLEPEIRIVNGKPKKVRKPRTIYSSFQLAALQRRFQKTQYLALPERAELAASLGLTQTQVKIWFQNRRSKFKKMWKSGEIPSEQHPGASASPPCASPPVSAPASWDFGVPQRMAGGGGPGSGGSGAGSSGSSPSSAASAFLGNYPWYHQTSGSASHLQATAPLLHPTQTPQPHHHHHHHGGGGAPVSAGTIF"}, "B2": {"name": "C20orf141: human host interactor protein, Gene ID 128653, expressed from transfected ORF vector (protein)", "chain": "MTRLCLPRPEAREDPIPVPPRGLGAGEGSGSPVRPPVSTWGPSWAQLLDSVLWLGALGLTIQAVFSTTGPALLLLLVSFLTFDLLHRPAGHTLPQRKLLTRGQSQGAGEGPGQQEALLLQMGTVSGQLSLQDALLLLLMGLGPLLRACGMPLTLLGLAFCLHPWA"}, "B3": {"name": "TEX11: human host interactor protein, Gene ID 56159, expressed from transfected ORF vector (protein)", "chain": "MISAHCNLRLLCSSDSSASASQVAGTTEVVENLVTNDNSPNIPEAIDRLFSDIANINRESMAEITDIQIEEMAVNLWNWALTIGGGWLVNEEQKIRLHYVACKLLSMCEASFASEQSIQRLIMMNMRIGKEWLDAGNFLIADECFQAAVASLEQLYVKLIQRSSPEADLTMEKITVESDHFRVLSYQAESAVAQGDFQRASMCVLQCKDMLMRLPQMTSSLHHLCYNFGVETQKNNKYEESSFWLSQSYDIGKMDKKSTGPEMLAKVLRLLATNYLDWDDTKYYDKALNAVNLANKEHLSSPGLFLKMKILLKGETSNEELLEAVMEILHLDMPLDFCLNIAKLLMDHERESVGFHFLTIIHERFKSSENIGKVLILHTDMLLQRKEELLAKEKIEEIFLAHQTGRQLTAESMNWLHNILWRQAASSFEVQNYTDALQWYYYSLRFYSTDEMDLDFTKLQRNMACCYLNLQQLDKAKEAVAEAERHDPRNVFTQFYIFKIAVIEGNSERALQAIITLENILTDEESEDNDLVAERGSPTMLLSLAAQFALENGQQIVAEKALEYLAQHSEDQEQVLTAVKCLLRFLLPKIAEMPESEDKKKEMDRLLTCLNRAFVKLSQPFGEEALSLESRANEAQWFRKTAWNLAVQCDKDPVMMREFFILSYKMSQFCPSDQVILIARKTCLLMAVAVDLEQGRKASTAFEQTMFLSRALEEIQTCNDIHNFLKQTGTFSNDSCEKLLLLYEFEVRAKLNDPLLESFLESVWELPHLETKTFETIAIIAMEKPAHYPLIALKALKKALLLYKKEEPIDISQYSKCMHNLVNLSVPDGASNVELCPLEEVWGYFEDALSHISRTKDYPEMEILWLMVKSWNTGVLMFSRSKYASAEKWCGLALRFLNHLTSFKESYETQMNMLYSQLVEALSNNKGPVFHEHGYWSKSD"}, "B4": {"name": "TRAF2: human host interactor protein, Gene ID 7186, expressed from transfected ORF vector (protein)", "chain": "MAAASVTPPGSLELLQPGFSKTLLGTKLEAKYLCSACRNVLRRPFQAQCGHRYCSFCLASILSSGPQNCAACVHEGIYEEGISILESSSAFPDNAARREVESLPAVCPSDGCTWKGTLKEYESCHEGRCPLMLTECPACKGLVRLGEKERHLEHECPERSLSCRHCRAPCCGADVKAHHEVCPKFPLTCDGCGKKKIPREKFQDHVKTCGKCRVPCRFHAIGCLETVEGEKQQEHEVQWLREHLAMLLSSVLEAKPLLGDQSHAGSELLQRCESLEKKTATFENIVCVLNREVERVAMTAEACSRQHRLDQDKIEALSSKVQQLERSIGLKDLAMADLEQKVLEMEASTYDGVFIWKISDFARKRQEAVAGRIPAIFSPAFYTSRYGYKMCLRIYLNGDGTGRGTHLSLFFVVMKGPNDALLRWPFNQKVTLMLLDQNNREHVIDAFRPDVTSSSFQRPVNDMNIASGCPLFCPVSKMEAKNSYVRDDAIFIKAIVDLTGL"}, "B5": {"name": "TRIP6: human host interactor protein, Gene ID 7205, expressed from transfected ORF vector (protein)", "chain": "MSGPTWLPPKQPEPARAPQGRAIPRGTPGPPPAHGAALQPHPRVNFCPLPSEQCYQAPGGPEDRGPAWVGSHGVLQHTQGLPADRGGLRPGSLDAEIDLLSSTLAELNGGRGHASRRPDRQAYEPPPPPAYRTGSLKPNPASPLPASPYGGPTPASYTTASTPAGPAFPVQVKVAQPVRGCGPPRRGASQASGPLPGPHFPLPGRGEVWGPGYRSQREPGPGAKEEAAGVSGPAGRGRGGEHGPQVPLSQPPEDELDRLTKKLVHDMNHPPSGEYFGQCGGCGEDVVGDGAGVVALDRVFHVGCFVCSTCRAQLRGQHFYAVERRAYCEGCYVATLEKCATCSQPILDRILRAMGKAYHPGCFTCVVCHRGLDGIPFTVDATSQIHCIEDFHRKFAPRCSVCGGAIMPEPGQEETVRIVALDRSFHIGCYKCEECGLLLSSEGECQGCYPLDGHILCKACSAWRIQELSATVTTDC"}, "B6": {"name": "FANCG: human host interactor protein, Gene ID 2189, expressed from transfected ORF vector (protein)", "chain": "MSRQTTSVGSSCLDLWREKNDRLVRQAKVAQNSGLTLRRQQLAQDALEGLRGLLHSLQGLPAAVPVLPLELTVTCNFIILRASLAQGFTEDQAQDIQRSLERVLETQEQQGPRLEQGLRELWDSVLRASCLLPELLSALHRLVGLQAALWLSADRLGDLALLLETLNGSQSGASKDLLLLLKTWSPPAEELDAPLTLQDAQGLKDVLLTAFAYRQGLQELITGNPDKALSSLHEAASGLCPRPVLVQVYTALGSCHRKMGNPQRALLYLVAALKEGSAWGPPLLEASRLYQQLGDTTAELESLELLVEALNVPCSSKAPQFLIEVELLLPPPDLASPLHCGTQSQTKHILASRCLQTGRAGDAAEHYLDLLALLLDSSEPRFSPPPSPPGPCMPEVFLEAAVALIQAGRAQDALTLCEELLSRTSSLLPKMSRLWEDARKGTKELPYCPLWVSATHLLQGQAWVQLGAQKVAISEFSRCLELLFRATPEEKEQGAAFNCEQGCKSDAALQQLRAAALISRGLEWVASGQDTKALQDFLLSVQMCPGNRDTYFHLLQTLKRLDRRDEATALWWRLEAQTKGSHEDALWSLPLYLESYLSWIRPSDRDAFLEEFRTSLPKSCDL"}, "B7": {"name": "C16orf33: human host interactor protein, Gene ID 79622, expressed from transfected ORF vector (protein)", "chain": "MDVFQEGLAMVVQDPLLCDLPIQVTLEEVNSQIALEYGQAMTVRVCKMDGEVMPVVVVQSATVLDLKKAIQRYVQLKQEREGGIQHISWSYVWRTYHLTSAGEKLTEDRKKLRDYGIRNRDEVSFIKKLRQK"}}, "data": [{"test_system": "HIV-1 LTR promoter transactivation by HIV-1 Tat", "assay": "Transactivation assay, HIV-1 LTR luciferase reporter with HIV-1 Tat", "type": "cell-based", "details": "HEK293 cells co-transfected with pHIV1LTR-Luc, HIV-1 Tat and the human ORF; relative luciferase activity 24 h post-transfection; positive if >=2 or <=0.5 and p<0.05", "text": "The plasmids pHIV1LTR-Luc or pHTLV1LTR-Luc containing a luciferase reporter gene under the control of the HIV-1 or HTLV-1 LTR promoters and plasmids expressing either HIV-1 Tat or HTLV-1 Tax and each human ORF found to interact with viral proteins were transfected into 10^4 HEK293 cells using the calcium phosphate method. Twenty-four hours post-transfection, cells were washed three times with PBS, lysed and luciferase activities determined from two independent transfection experiments in triplicate. We computed a paired t-test to assess the difference of the means between samples with and without the human interactor. For a trial to be considered positive, the relative luciferase activities has to be >=2 or <=0.5, and the p-value of the t-test<0.05.\nMany HIV/HTLV-human interactions in our data set (130/212) involved the retroviral transactivator proteins HTLV-1 Tax (57/212), HTLV-2 Tax2 (49/212), HIV-1 Tat (10/212) and HIV-2 Tat (14/212). Human proteins interacting with viral transactivators likely influence Tat or Tax transactivation. Expression vectors encoding human ORFs and HIV-1 Tat or HTLV-1 Tax proteins were tested in a transactivation reporter assay against reporter plasmids harboring HIV-1 or HTLV-1 viral promoter sequences cloned upstream of the luciferase reporter gene. In the controls Tat or Tax respectively activated HIV or HTLV LTR-directed gene expression. Co-transfection of interacting human ORFs identified 71 proteins (54% of the 131 human targets in our data set) that regulated HIV (26.7% of targets), HTLV (37.4% of targets) or both (9.9% of targets) LTR promoter activation by Tat or Tax (see Tables 7 and 8; Table 13 below containing quantitative data on the regulation of transactivation). Wherever not expressly specified, constructs used herein were generally made by sub-cloning entry clones from the ORFeome V3.1 into suitable destination vectors.", "units": {"HIV_LTR transactiv.": "fold change"}, "values": [{"molecule": "B1", "HIV_LTR transactiv.": 0.24}, {"molecule": "B2", "HIV_LTR transactiv.": 0.35}, {"molecule": "B3", "HIV_LTR transactiv.": 4.41}, {"molecule": "B4", "HIV_LTR transactiv.": 0.22}, {"molecule": "B5", "HIV_LTR transactiv.": 2.87}, {"molecule": "B6", "HIV_LTR transactiv.": 0.27}, {"molecule": "B7", "HIV_LTR transactiv.": 2.50}]}, {"test_system": "HTLV-1 LTR promoter transactivation by HTLV-1 Tax", "assay": "Transactivation assay, HTLV-1 LTR luciferase reporter with HTLV-1 Tax", "type": "cell-based", "details": "HEK293 cells co-transfected with pHTLV1LTR-Luc, HTLV-1 Tax and the human ORF; relative luciferase activity 24 h post-transfection; positive if >=2 or <=0.5 and p<0.05", "units": {"HTLV_LTR transactiv.": "fold change"}, "values": [{"molecule": "B1", "HTLV_LTR transactiv.": 0.30}, {"molecule": "B2", "HTLV_LTR transactiv.": 2.80}, {"molecule": "B6", "HTLV_LTR transactiv.": 3.48}]}]}
